For one data set, the target named is T1, MlnC COM^A-AAL.
T1 chain: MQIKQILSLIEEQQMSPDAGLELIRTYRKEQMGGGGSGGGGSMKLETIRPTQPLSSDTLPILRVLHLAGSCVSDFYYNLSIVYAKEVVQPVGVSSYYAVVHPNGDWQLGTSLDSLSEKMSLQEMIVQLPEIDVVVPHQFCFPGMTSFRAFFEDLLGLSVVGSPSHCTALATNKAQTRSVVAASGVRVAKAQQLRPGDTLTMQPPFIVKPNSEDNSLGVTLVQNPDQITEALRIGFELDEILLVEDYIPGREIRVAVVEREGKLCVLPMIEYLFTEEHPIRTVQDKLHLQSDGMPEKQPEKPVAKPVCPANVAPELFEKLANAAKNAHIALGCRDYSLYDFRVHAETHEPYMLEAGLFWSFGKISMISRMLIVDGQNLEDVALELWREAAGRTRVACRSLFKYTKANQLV

The target of another data set is T2, 4CL-MlnB COM^D (Bacillus amyloliquefaciens, UniProt Q42524 1-561).
T2 construct: Unlabelled protein as used in SEC/native PAGE and in the two-step naringenin reaction; also called 4-coumarate-CoA ligase fused to MlnB COM donor domain; not shown: N-terminal His-tag from pET15b vector
T2 sequence: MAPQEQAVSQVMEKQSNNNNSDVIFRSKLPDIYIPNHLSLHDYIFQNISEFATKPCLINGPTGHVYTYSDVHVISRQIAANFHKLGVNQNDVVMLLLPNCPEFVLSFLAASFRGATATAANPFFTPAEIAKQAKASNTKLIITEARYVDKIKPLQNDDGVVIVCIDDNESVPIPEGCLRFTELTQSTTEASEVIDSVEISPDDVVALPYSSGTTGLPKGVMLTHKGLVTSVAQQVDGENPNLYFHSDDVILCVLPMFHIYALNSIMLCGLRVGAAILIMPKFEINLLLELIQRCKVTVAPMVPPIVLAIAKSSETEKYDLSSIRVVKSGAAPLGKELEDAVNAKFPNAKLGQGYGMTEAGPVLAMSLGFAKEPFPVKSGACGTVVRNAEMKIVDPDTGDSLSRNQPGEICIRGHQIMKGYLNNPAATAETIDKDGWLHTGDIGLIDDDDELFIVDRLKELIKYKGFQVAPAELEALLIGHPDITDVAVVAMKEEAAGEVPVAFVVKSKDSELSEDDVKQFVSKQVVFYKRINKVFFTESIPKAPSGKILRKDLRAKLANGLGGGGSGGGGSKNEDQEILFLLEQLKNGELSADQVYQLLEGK
Put plainly: analytical SEC-FPLC of a 1:1 mixture and native PAGE.

Data set [1] deals with T3, Cy3-labeled 4CL-MlnB COM^D (Bacillus amyloliquefaciens, UniProt Q42524 1-561, Cy3-NHS ester linked to naturally occurring lysine residues (positions not stated)).
T3 construct: Dye-labelled form used in the three-channel FRET analysis; also called 4CL-MlnB COMD labeled with Cy3; not shown: N-terminal His-tag from pET15b vector
T3 sequence: T2 sequence
Briefly: Cy3/Cy5 FRET, three channels.

B1: MlnB COM^D-CNL (protein)
chain: KNEDQEILFLLEQLKNGELSADQVYQLLEGKGGGSMAQSISLSLPQSTTPSKGVRLKIAALLKTIGTLILLLIALPLNALIVLISLMCRPFTKKPAVATHPQNILVSGGKMTKALQLARSFHAAGHRVILIEGHKYWLSGHRFSNSVSRFYTVPAPQDDPEGYTQALLEIVKREKIDVYVPVCSPVASYYDSLAKSALSEYCEVFHFDADITKMLDDKFAFTDRARSLGLSAPKSFKITDPEQVINFDFSKETRKYILKSISYDSVRRLNLTKLPCDTPEETAAFVKSLPISPEKPWIMQEFIPGKELCTHSTVRDGELRLHCCSNSSAFQINYENVENPQIQEWVQHFVKSLRLTGQISLDFIQAEDGTAYAIECNPRTHSAITMFYNHPGVAEAYLGKTPLAAPLEPLADSKPTYWIYHEIWRLTGIRSGQQLQTWFGRLVRGTDAIYRLDDPIPFLTLHHWQITLLLLQNLQRLKGWVKIDFNIGKLVELGGD
In the case of B1, in the data set with MlnC COM^A-AAL, the “shinorine production in Saccharomyces cerevisiae (HPLC), against free or singly fused CNL and AAL” value is given as “shinorine production increased by about 1.3 times”.

B2: MlnC COM^A-CHS (enzyme)
chain: MQIKQILSLIEEQQMSPDAGLELIRTYRKEQMGGGGSGGGGSGGGGSMVTVEEYRKAQRAEGPATVMAIGTATPSNCVDQSTYPDFYFRITNSEHKTDLKEKFKRMCEKSMIKKRYMHLTEEILKENPSMCEYMAPSLDARQDIVVVEVPKLGKEAAQKAIKEWGQPKSKITHLVFCTTSGVDMPGCDYQLTKLLGLRPSVKRLMMYQQGCFAGGTVLRLAKDLAENNKGARVLVVCSEITAVTFRGPNDTHLDSLVGQALFGDGAGAIIIGSDPIPGVERPLFELVSAAQTLLPDSHGAIDGHLREVGLTFHLLKDVPGLISKNIEKSLEEAFKPLGISDWNSLFWIAHPGGPAILDQVEIKLGLKPEKLKATRNVLSNYGNMSSACVLFILDEMRKASAKEGLGTTGEGLEWGVLFGFGPGLTVETVVLHSVAT
notes: Unlabelled protein as used in SEC/native PAGE and in the two-step naringenin reaction; also called chalcone synthase fused to MlnC COM acceptor domain; not shown: C-terminal His-tag from pET21c vector
For B2, the binding result in the data set with 4CL-MlnB COM^D is listed as “binds”.

B3: Cy5-labeled MlnC COM^A-CHS (enzyme)
chain: B2 chain
modifications: Cy5-NHS ester linked to naturally occurring lysine residues (positions not stated)
notes: Dye-labelled form used in the three-channel FRET analysis; also called MlnC COMA-CHS labeled with Cy5; not shown: C-terminal His-tag from pET21c vector
In the case of B3, in data set [1], the binding result is “binds”.

(Values after US20230097015A1 (SEOUL NATIONAL UNIVERSITY R AND DB FOUNDATION, published 2023).)
